Results as given in publication PMC3295803.

How the values were obtained:
Experiment in all cases: pressure-induced dissociation followed by light scattering; recombinant oligomers 0.2 mg/ml in 25 mM Tris pH 7.5, 25°C, 1 to 3000 bar in steps of 270 bar and back; without or with 2-mercaptoethanol
[1] = target: AgB recombinant subunit rAgB8/1 (Echinococcus granulosus)
[2] = target: AgB recombinant subunit rAgB8/2 (Echinococcus granulosus)
[3] = target: AgB recombinant subunit rAgB8/3 (Echinococcus granulosus)

AgB recombinant subunit rAgB8/1
decrease of the light scattering signal after compression [1]: 60%

AgB recombinant subunit rAgB8/2
decrease of the light scattering signal after compression [2]: 30%

AgB recombinant subunit rAgB8/3
decrease of the light scattering signal after compression [3]: 30%
